Measured values taken from patent US20240166755A1, “CHIMERIC ANTIGEN RECEPTORS TARGETING CANCER” (University of Southern California, priority 2016, published 2024).
Entries after “also recorded” stand apart in the source; their conditions may differ.

B1: CD8SP-DLL3-hSC16-13-(vL-vH)-Myc-BBz-T2A-PAC(052516-D07)[SEQ ID NO: 1584] (protein)
chain: MALPVTALLLPLALLLHAARPDIQMTQSPSSLSASVGDRVTITCSASSSVSYMYWYQQKPGKAPKLLIYLTSNLASGVPSRFSGSGSGTDFTLTISSLQPEDFATYYCQQWRSNPFTFGQGTKLEIKRGGGGSGGGGSGGGGSQITLKESGPTLVKPTQTLTLTCTFSGFSLSTSGMGVGWIRQPPGKALEWLAHIWWDDVKRYSPSLKSRLTITKDTSKNQVVLTMTNMDPVDTATYYCARIVSFDNDVVSAMDYWGQGTLVTVSSTREQKLISEEDLAKPTTTPAPRPPTPAPTIASQPLSLRPEACRPAAGGAVHTRGLDFACDIYIWAPLAGTCGVLLLSLVITLYCKRGRKKLLYIFKQPFMRPVQTTQEEDGCSCRFPEEEEGGCELRVKFSRSADAPAYQQGQNQLYNELNLGRREEYDVLDKRRGRDPEMGGKPRRKNPQEGLYNELQKDKMAEAYSEIGMKGERRRGKGHDGLYQGLSTATKDTYDALHMQALPPRSSGSGEGRGSLLTCGDVEENPGPHMTEYKPTVRLATRDDVPRAVRTLAAAFADYPATRHTVDPDRHIERVTELQELFLTRVGLDIGKVWVADDGAAVAVWTTPESVEAGAVFAEIGPRMAELSGSRLAAQQQMEGLLAPHRPKEPAWFLATVGVSPDHQGKGLGSAVVLPGVEAAERAGVPAFLETSAPRNLPFYERLGFTVTADVEVPEGPRTWCMTRKPGA
modifications: listed as DNA
B2: CD8SP-CD324-hSC10-17-(vL-vH)-Myc-BBz-T2A-PAC(052516-A07)[SEQ ID NO: 1555] (protein)
chain: MALPVTALLLPLALLLHAARPDVVMTQSPLSLPVTLGQPASISCRSSQSIVHSDGNTYLEWYQQRPGQSPRRLIYKVSNRFSGVPDRFSGSGSGTDFTLKISRVEAEDVGVYYCFQGSHAPWTFGGGTKVEIKGGGGSGGGGSGGGGSEVQLVESGGGLVQPGGSLRLSCAASGFTFSSYGMHWVRQAPGKGLEWVAYITTRSSTIYYADSVKGRFTISRDNAKNSLYLQMNSLRAEDTAVYYCTREPLTGYYAMDYWGQGTSVTVSSTREQKLISEEDLAKPTTTPAPRPPTPAPTIASQPLSLRPEACRPAAGGAVHTRGLDFACDIYIWAPLAGTCGVLLLSLVITLYCKRGRKKLLYIFKQPFMRPVQTTQEEDGCSCRFPEEEEGGCELRVKFSRSADAPAYQQGQNQLYNELNLGRREEYDVLDKRRGRDPEMGGKPRRKNPQEGLYNELQKDKMAEAYSEIGMKGERRRGKGHDGLYQGLSTATKDTYDALHMQALPPRSSGSGEGRGSLLTCGDVEENPGPHMTEYKPTVRLATRDDVPRAVRTLAAAFADYPATRHTVDPDRHIERVTELQELFLTRVGLDIGKVWVADDGAAVAVWTTPESVEAGAVFAEIGPRMAELSGSRLAAQQQMEGLLAPHRPKEPAWFLATVGVSPDHQGKGLGSAVVLPGVEAAERAGVPAFLETSAPRNLPFYERLGFTVTADVEVPEGPRTWCMTRKPGA
modifications: listed as DNA

System: target cells expressing their respective target antigen
Test: Jurkat-NFAT-GFP assay, co-culture with target cells expressing the respective target antigen (Table 28)
Details: Jurkat-NFAT-GFP cells expressing the CAR; cell line(s) giving greater % GFP positive cells than parental

| Molecule | Positive Cell Line on co-culture assay |
| --- | --- |
| B1 | LAN5, SKMEL31,; also recorded: SKMEL317 |
| B2 | MDAMB-231 |
